The chains are these.
B1: wild-type rTpiA (recombinant Streptococcus pneumoniae D39 triosephosphate isomerase) [Streptococcus pneumoniae D39] / human plasma plasminogen [human] (parent complex)
chain 1: SRKPFIAGNWKMNKNPEEAKAFVEAVASKLPSSDLVEAGIAAPALDLTTVLAVAKGSNLKVAAQNCYFENAGAFTGETSPQVLKEIGTDYVVIGHSERRDYFHETDEDINKKAKAIFANGMLPIICCGESLETYEAGKAAEFVGAQVSAALAGLTAEQVAASVIAYEPIWAIGTGKSASQDDAQKMCKVVRDVVAADFGQEVADKVRVQYGGSVKPENVASYMACPDVDGALVGGASLEAESFLALLDFVK
chain 2: EPLDDYVNTQGASLFSVTKKQLGAGSIEECAAKCEEDEEFTCRAFQYHSKEQQCVIMAENRKSSIIIRMRDVVLFEKKVYLSECKTGNGKNYRGTMSKTKNGITCQKWSSTSPHRPRFSPATHPSEGLEENYCRNPDNDPQGPWCYTTDPEKRYDYCDILECEEECMHCSGENYDGKISKTMSGLECQAWDSQSPHAHGYIPSKFPNKNLKKNYCRNPDRELRPWCFTTDPNKRWELCDIPRCTTPPPSSGPTYQCLKGTGENYRGNVAVTVSGHTCQHWSAQTPHTHNRTPENFPCKNLDENYCRNPDGKRAPWCHTTNSQVRWEYCKIPSCDSSPVSTEQLAPTAPPELTPVVQDCYHGDGQSYRGTSSTTTTGKKCQSWSSMTPHRHQKTPENYPNAGLTMNYCRNPDADKGPWCFTTDPSVRWEYCNLKKCSGTEASVVAPPPVVLLPDVETPSEEDCMFGNGKGYRGKRATTVTGTPCQDWAAQEPHRHSIFTPETNPRAGLEKNYCRNPDGDVGGPWCYTTNPRKLYDYCDVPQCAAPSFDCGKPQVEPKKCPGRVVGGCVAHPHSWPWQVSLRTRFGMHFCGGTLISPEWVLTAAHCLEKSPRPSSYKVILGAHQEVNLEPHVQEIEVSRLFLEPTRKDIALLKLSSPAVITDKVIPACLPSPNYVVADRTECFITGWGETQGTFGAGLLKEAQLPVIENKVCNRYEFLNGRVQSTELCAGHLAGGTDSCQGDSGGPLVCFEKDKYILQGVTSWGLGCARPNKPGVYVRVSRFVTWIEGVMRNN

Experimental findings from article PMC10221034 (2023) are described below.

The variants in the test derive from B1. Kind of test: ELISA; rTpiA protein-coated microtiter plate; measured 60 min after substrate addition; n = 9; parent: 1.4; read off a plot. For orientation: An ELISA detects its analyte on a solid surface through an enzyme-linked reagent.
Consider chain 1 K251A, for which the response was ~0.14 A405.

Regarding chain 1 K3A, the response is ~1.3 A405.

Consider chain 1 K112A, for which the response is ~1.2 A405.

Regarding chain 1 K29A, the response was ~1.2 A405.

Take chain 1 K176A: the response is ~1.3 A405.

As to chain 1 K60A, the response is ~1.3 A405.

With chain 1 K114A, the response is ~1.3 A405.

As for chain 1 K185A, the response was ~1.3 A405.

Consider chain 1 K20A, for which the response is ~1.3 A405.

With chain 1 K138A, the response was ~1.3 A405.

Take chain 1 K11A: the response is ~1.3 A405.

For the variant chain 1 K188A, the response is ~1.3 A405.

In the case of chain 1 K14A, the response is ~1.3 A405.

On to chain 1 K111A, chain 1 K112A, chain 1 K114A, for which the response was ~0.86 A405.

For chain 1 K215A, the response was ~1.4 A405.

Consider chain 1 K55A, for which the response is ~1.3 A405.

On to chain 1 K111A, for which the response was ~1.3 A405.

Take chain 1 K205A: the response is ~1.3 A405.

On to chain 1 K84A, for which the response is ~1.2 A405.
